# Test results as given in patent US20250034266A1 (ZAI LAB SHANGHAI, published 2025).
# Numbering of substitutions follows the chain as printed. Where two headings read alike, the source gives them in different places.
# B1: Hu149-11G1 (antibody, human IgG1)
# heavy: not shown
# VL: DIVMTQSPLSLPVTPGEPASISCRSSKSLLHSNANTYLYWFLQKPGQSPQLLIYRMSNLASGVPDRFSGSGSGTDFTLKISRVEAEDVGVYYCMQHLEYPLTFGGGTKVELK
# notes: also called Hu149-11G1 (wild type variant)
# B2: Hu149-12 (antibody, human IgG1)
# heavy: not shown
# VL: B1 VL
# notes: human IgG1; suffix G1 read as wild type as for Hu149-11G1; also called Hu149-12G1
# B3: Hu149-18 (antibody, human IgG1, V domains shown)
# VH: EVQLVESGGGLVQPGGSLKLSCAASGFTFNTYAMNWVRQASGKGLEWVGRIRSKSNFYATAYAASVKGRFTISRDDSKNTAYLQMNSLKTEDTAVYYCTRGRDYGSSYAMDYWGQGTLVTVSS
# VL: B1 VL with E98R
# notes: human IgG1
# B4: Hu348-4 mIgG2a (antibody, V domains shown)
# VH: EVQLVESGGGLVQPGGSLKLSCATSGFSFSNYRMHWLRQASGKGLEWVGVITVKSDNYGANYAASVKGRFTISRDDSKSSVYLQMNSLKTEDTAVYYCSSLGRVAYWGQGTLVTVSS
# VL: DIQMTQSPSSVSASVGDRVTITCKASQNVDTNVVWYQQKPGQSPKALIYSASSRYSGVPSRFSGSGSGTDFTLTISSLQPEDFATYYCQQHNSFPLTFGQGTKLEIK
# B5: TPP21360 (antibody, V domains shown)
# VH: EVQLLESGGGLVQPGGSLRLSCAASGFTFSSYGMHWVRQAPGKGLEWVSAINWNGGSTGYADSVKGRFTISRDNSKNTLYLQMNSLRAEDTAVYYCARGHHSGYDGRFFDYWGQGTLVTVSS
# VL: QSVLTQPPSVSGAPGQRVTISCTGSSSNIGAGYNVHWYQQLPGTAPKLLIYTNNRRPSGVPDRFSGSKSGTSASLAISGLRSEDEADYYCAAWDASLSGWVFGGGTKLTVLG
# Key:
# human CCR8 [1] = target: T1, human CCR8 (human, UniProt P51685 1-355); assay: cell-based or functional assay
# T1 sequence (P51685 whole entry): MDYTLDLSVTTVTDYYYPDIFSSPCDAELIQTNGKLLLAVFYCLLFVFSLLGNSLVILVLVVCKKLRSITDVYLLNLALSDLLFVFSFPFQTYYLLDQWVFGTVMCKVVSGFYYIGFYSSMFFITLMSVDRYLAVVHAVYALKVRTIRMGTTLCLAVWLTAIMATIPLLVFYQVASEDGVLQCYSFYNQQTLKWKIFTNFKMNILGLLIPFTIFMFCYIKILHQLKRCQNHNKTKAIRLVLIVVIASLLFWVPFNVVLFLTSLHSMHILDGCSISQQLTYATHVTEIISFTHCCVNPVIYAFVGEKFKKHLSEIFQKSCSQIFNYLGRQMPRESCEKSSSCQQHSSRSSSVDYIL
# human CCR8 [2] = target: T1, human CCR8; assay: cell-based or functional assay; remark: listed apart in the source
# human CCR8 [3] = target: T1, human CCR8; assay: cell-based or functional assay; remark: listed apart in the source
# human CCR8 [4] = target: T1, human CCR8; assay: cell-based or functional assay; remark: listed apart in the source
# human CCR8 [5] = target: T1, human CCR8; assay: flow cytometry on TALL-1 cells (endogenous CCR8)
# Description: Briefly, a total of 5×10⁴ cells for each well were seeded in 96-well plates and washed with FACS buffer (DPBS containing 1.5% FBS) for once. Antibodies were prepared with 3-fold serial dilution ranging from 100 nM to 0.00508 nM in FACS buffer. Cells were incubated with 50 μL of diluted antibodies at 4° C. for 40 minutes. After primary antibody incubation, cells were washed twice by FACS buffer. Then, cells were stained by Alexa Flu647-labeled anti-human IgG Fc secondary antibody (Jackson ImmunoResearch, #109606170) at 1:500 dilution in FACS buffer for 40 minutes at 4° C. After 2 times wash with FACS buffer, flow cytometry (BD FACS Celesta) was performed to measure the binding affinities of antibodies.
# human CCR8 [6] = target: T2, human CCR8 (human, UniProt P51685 1-355); assay: cell-based or functional assay; remark: listed apart in the source
# T2 sequence (P51685 whole entry): as above
# human CCR8 [7] = target: T2, human CCR8; assay: cell-based or functional assay; remark: listed apart in the source
# human CCR8 [8] = target: T2, human CCR8; assay: FACS on CHO-K1-human CCR8 cells
# human CCR8 [9] = target: T2, human CCR8; assay: FACS on CHO-K1-human CCR8 cells; remark: listed apart in the source
# cynomolgus CCR8 [10] = target: T3, cynomolgus CCR8 (cynomolgus, UniProt G7NYJ2 1-355); assay: FACS on HEK293-cynomolgus CCR8 cells
# T3 construct: whole, on cells
# T3 sequence (G7NYJ2 entry or part of it): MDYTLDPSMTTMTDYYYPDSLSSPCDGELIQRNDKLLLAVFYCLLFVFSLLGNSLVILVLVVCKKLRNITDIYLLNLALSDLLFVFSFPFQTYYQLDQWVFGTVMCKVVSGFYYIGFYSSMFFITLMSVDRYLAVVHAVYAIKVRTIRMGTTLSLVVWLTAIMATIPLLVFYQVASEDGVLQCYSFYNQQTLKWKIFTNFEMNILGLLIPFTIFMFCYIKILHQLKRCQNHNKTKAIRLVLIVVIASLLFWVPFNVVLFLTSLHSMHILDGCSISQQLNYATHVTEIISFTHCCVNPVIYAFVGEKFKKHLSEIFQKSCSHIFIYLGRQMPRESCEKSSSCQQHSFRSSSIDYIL
# cynomolgus CCR8 [11] = target: T3, cynomolgus CCR8; assay: FACS on HEK293-cynomolgus CCR8 cells; remark: listed apart in the source
# human CCR8 [12] = target: T2, human CCR8; assay: FACS on HuT78 cells (endogenous human CCR8)
# Description: HuT78 cells expressing endogenous human CCR8 were used for determining binding affinities of selected affinity matured anti-CCR8 antibodies. Briefly, a total of […] cells for each well were seeded in 96-well plates and washed with FACS buffer (DPBS containing […]) for once. […] Cells were incubated with 50 μL of diluted antibodies at 4° C. for 1 hour. After primary antibody incubation, cells were washed for 3 times by FACS buffer. Then, cells were stained by Alexa Fbu647 labeled anti-human IgG secondary antibody (Jackson ImmunoResearch, #109606170) at 1:600 dilution in FACS buffer for 0.5 hour at 4° C. After 3 times washed, flow cytometry (Sartourius, iQue3) was performed to measure the binding affinities of antibodies. […]
# human CCR8 [13] = target: T2, human CCR8; assay: FACS on HuT78 cells (endogenous human CCR8); remark: listed apart in the source
# human CCR8 [14] = target: T2, human CCR8; assay: FACS, competition with CCL1 on CHO-K1-human CCR8 cells
# human CCR8 [15] = target: T2, human CCR8; assay: as above; remark: listed apart in the source
# human CCR8 [16] = target: T2, human CCR8; assay: cell-based or functional assay; remark: listed apart in the source
binder,measurement,setting,value
B1,"EC50, ADCC reporter, F variant CD16a/NFAT-Jurkat, target CHO-K1-human CCR8 cells",human CCR8 [1],0.0586 nM
same,"EC50, ADCC reporter, F variant CD16a/NFAT-Jurkat, target HuT78 cells",human CCR8 [1],0.402 nM
same,"EC50, ADCC reporter, V variant CD16a/NFAT-Jurkat, target CHO-K1-human CCR8 cells",human CCR8 [1],0.0391 nM
same,"EC50, ADCC reporter, V variant CD16a/NFAT-Jurkat, target HuT78 cells",human CCR8 [1],0.586 nM
same,"Max (RLU), ADCC reporter, F variant CD16a/NFAT-Jurkat, target CHO-K1-human CCR8 cells",human CCR8 [1],4.71e+06 RLU
same,"Max (RLU), ADCC reporter, F variant CD16a/NFAT-Jurkat, target HuT78 cells",human CCR8 [1],4.07e+06 RLU
same,"Max (RLU), ADCC reporter, V variant CD16a/NFAT-Jurkat, target CHO-K1-human CCR8 cells",human CCR8 [1],2.03e+06 RLU
same,"Max (RLU), ADCC reporter, V variant CD16a/NFAT-Jurkat, target HuT78 cells",human CCR8 [1],3.89e+06 RLU
same,"EC50, ADCC with human PBMCs, target CHO-K1-human CCR8 cells",human CCR8 [2],0.0139 nM
same,"Max specific lysis (%), ADCC with human PBMCs, target CHO-K1-human CCR8 cells",human CCR8 [2],52.5%
same,"EC50, ADCC reporter, 158F CD16a/NFAT-Jurkat, target TALL-1 cells",human CCR8 [3],0.12 nM
same,"EC50, ADCC reporter, 158V CD16a/NFAT-Jurkat, target TALL-1 cells",human CCR8 [3],0.0658 nM
same,"EC50, ADCC with human PBMCs (LDH release), target TALL-1 cells",human CCR8 [4],0.0121 nM
same,EC50,human CCR8 [5],0.315 nM
B2,"IC50, inhibition of CCL1 induced β-Arrestin recruitment",human CCR8 [6],0.35 nM
same,"Max Inhibition (%), CCL1 induced β-Arrestin recruitment",human CCR8 [6],85.8%
same,"IC50, blocking of cell migration induced by CCL1",human CCR8 [7],0.953 nM
same,EC50,human CCR8 [8],0.0675 nM
same,Max MFI,human CCR8 [8],638000 MFI
same,EC50,human CCR8 [9],0.093 nM
same,Max MFI,human CCR8 [9],199000 MFI
same,EC50,cynomolgus CCR8 [10],0.199 nM
same,Max MFI,cynomolgus CCR8 [10],4.04e+06 MFI
same,EC50,cynomolgus CCR8 [11],0.17 nM
same,Max MFI,cynomolgus CCR8 [11],3.61e+06 MFI
same,EC50,human CCR8 [12],0.17 nM
same,Max MFI,human CCR8 [12],26900 MFI
same,EC50,human CCR8 [13],0.25 nM
same,Max MFI,human CCR8 [13],48100 MFI
same,IC50,human CCR8 [14],0.0982 nM
same,Max Inhibition (%),human CCR8 [14],100%
same,IC50,human CCR8 [15],0.184 nM
same,Max Inhibition (%),human CCR8 [15],99.5%
B3,"IC50, inhibition of CCL1 induced β-Arrestin recruitment",human CCR8 [6],0.61 nM
same,"Max Inhibition (%), CCL1 induced β-Arrestin recruitment",human CCR8 [6],88.8%
same,EC50,human CCR8 [8],0.0722 nM
same,Max MFI,human CCR8 [8],694000 MFI
same,EC50,cynomolgus CCR8 [10],0.0826 nM
same,Max MFI,cynomolgus CCR8 [10],4.15e+06 MFI
same,Max MFI,human CCR8 [12],351000 MFI
same,IC50,human CCR8 [14],0.0614 nM
same,Max Inhibition (%),human CCR8 [14],101%
B4,"IC50, inhibition of CCL1 induced β-Arrestin recruitment",human CCR8 [16],860 nM
B5,"EC50, ADCC with human PBMCs (LDH release), target TALL-1 cells",human CCR8 [4],0.553 nM
same,EC50,human CCR8 [5],0.461 nM
